Data as given in the supplement of paper PMC9112550, “Optimization of the antimicrobial peptide Bac7 by deep mutational scanning” (BMC Biology, 2022).

Test system: Escherichia coli TOP10
Assay: shrunken log2 fold change of peptide-encoding DNA abundance (4.5 h post-induction vs induction); higher = less antimicrobial activity (less host growth inhibition)
Conditions: time post-induction: 4.5 h; library: site-saturation at positions 5, 18, 19, 20
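Note: peptides expressed intracellularly from a pBAD plasmid library in pooled LB shake-flask culture, induced with 0.3% L-arabinose, DNA abundance read by NGS, three biological replicates, DESeq2 with apeglm shrinkage.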

Row | Sequence | shrunken log2 fold change
1 | RRIRTRPPRLPRPRPRPQDPPRP | 0.167
2 | RRIRTRPPRLPRPRPRPCRNPRP | -0.533
3 | RRIRQRPPRLPRPRPRPLWGPRP | -0.0254
4 | RRIRIRPPRLPRPRPRPQTWPRP | -0.169
5 | RRIRKRPPRLPRPRPRPESKPRP | 0.727
6 | RRIRDRPPRLPRPRPRPQIRPRP | -0.222
7 | RRIRDRPPRLPRPRPRPIRYPRP | -0.103
8 | RRIRKRPPRLPRPRPRPIRGPRP | 0.0181
9 | RRIRCRPPRLPRPRPRPTFAPRP | 0.359
10 | RRIRWRPPRLPRPRPRPGSKPRP | 0.0611
11 | RRIRNRPPRLPRPRPRPGVSPRP | -0.279
12 | RRIRPRPPRLPRPRPRPENAPRP | 0.0319
13 | RRIRVRPPRLPRPRPRPSLAPRP | -0.0683
14 | RRIRQRPPRLPRPRPRPYFHPRP | -0.563
15 | RRIRGRPPRLPRPRPRPDTIPRP | 0.0799
16 | RRIRWRPPRLPRPRPRPMAPPRP | 0.0741
17 | RRIRLRPPRLPRPRPRPKQAPRP | 0.152
18 | RRIRMRPPRLPRPRPRPNCKPRP | 0.102
19 | RRIRDRPPRLPRPRPRPMQVPRP | 0.0758
20 | RRIRSRPPRLPRPRPRPASEPRP | -0.00793
21 | RRIRRRPPRLPRPRPRPCLMPRP | 0.434
22 | RRIRIRPPRLPRPRPRPRNEPRP | 0.227
23 | RRIRTRPPRLPRPRPRPIASPRP | -0.0997
24 | RRIRVRPPRLPRPRPRPQTAPRP | 0.0297
25 | RRIRCRPPRLPRPRPRPGVQPRP | -0.419

Row | Sequence | shrunken log2 fold change
26 | RRIRYRPPRLPRPRPRPRMNPRP | 0.0193
27 | RRIRNRPPRLPRPRPRPSLEPRP | -0.208
28 | RRIRSRPPRLPRPRPRPGDQPRP | 0.0164
29 | RRIRSRPPRLPRPRPRPYHHPRP | -0.511
30 | RRIRYRPPRLPRPRPRPWIKPRP | 0.106
31 | RRIRTRPPRLPRPRPRPRAMPRP | 0.41
32 | RRIRVRPPRLPRPRPRPQHCPRP | 0.0856
33 | RRIRWRPPRLPRPRPRPGQLPRP | -0.0402
34 | RRIRCRPPRLPRPRPRPTCEPRP | 0.142
35 | RRIRDRPPRLPRPRPRPSQKPRP | -0.0691
36 | RRIRNRPPRLPRPRPRPITHPRP | -0.644
37 | RRIRKRPPRLPRPRPRPSDNPRP | 0.0936
38 | RRIRLRPPRLPRPRPRPEYEPRP | 0.0712
39 | RRIRVRPPRLPRPRPRPLARPRP | 0.0756
40 | RRIRERPPRLPRPRPRPYKTPRP | -0.00814
41 | RRIRKRPPRLPRPRPRPYWPPRP | -0.000778
42 | RRIRWRPPRLPRPRPRPYVIPRP | -0.0496
43 | RRIRQRPPRLPRPRPRPYCPPRP | -0.422
44 | RRIRLRPPRLPRPRPRPPNDPRP | 0.0552
45 | RRIRERPPRLPRPRPRPIWQPRP | 0.062
46 | RRIRCRPPRLPRPRPRPETWPRP | 0.203
47 | RRIRERPPRLPRPRPRPGYHPRP | -0.502
48 | RRIRDRPPRLPRPRPRPQDVPRP | -0.254
49 | RRIRERPPRLPRPRPRPEAPPRP | 0.406
50 | RRIRYRPPRLPRPRPRPRTWPRP | -0.0833

Row | Sequence | shrunken log2 fold change
51 | RRIRKRPPRLPRPRPRPLCMPRP | 0.081
52 | RRIRARPPRLPRPRPRPWHIPRP | 0.0256
53 | RRIRVRPPRLPRPRPRPKKLPRP | -0.0765
54 | RRIRERPPRLPRPRPRPFLTPRP | -0.506
55 | RRIRNRPPRLPRPRPRPSHWPRP | -0.17
56 | RRIRMRPPRLPRPRPRPVHPPRP | 0.127
57 | RRIRFRPPRLPRPRPRPISMPRP | -0.137
58 | RRIRWRPPRLPRPRPRPHSRPRP | 0.194
59 | RRIRWRPPRLPRPRPRPYLSPRP | -0.242
60 | RRIRYRPPRLPRPRPRPIMFPRP | -1.35
61 | RRIRVRPPRLPRPRPRPRYTPRP | 0.0365
62 | RRIRWRPPRLPRPRPRPAPNPRP | 3.12
63 | RRIRQRPPRLPRPRPRPQLLPRP | -0.00691
64 | RRIRARPPRLPRPRPRPFYAPRP | -0.066
65 | RRIRNRPPRLPRPRPRPLDAPRP | 0.0657
66 | RRIRERPPRLPRPRPRPPSEPRP | 0.156
67 | RRIRLRPPRLPRPRPRPDPKPRP | 0.331
68 | RRIRRRPPRLPRPRPRPVSVPRP | 0.308
69 | RRIRTRPPRLPRPRPRPIQNPRP | -0.147
70 | RRIRDRPPRLPRPRPRPQTHPRP | 0.269
71 | RRIRRRPPRLPRPRPRPERFPRP | 0.293
72 | RRIRGRPPRLPRPRPRPCCWPRP | 0.878
73 | RRIRCRPPRLPRPRPRPSGIPRP | -0.154
74 | RRIRYRPPRLPRPRPRPHLHPRP | -1.12
75 | RRIRTRPPRLPRPRPRPRFNPRP | -0.286

Row | Sequence | shrunken log2 fold change
76 | RRIRSRPPRLPRPRPRPMDDPRP | -0.0393
77 | RRIRDRPPRLPRPRPRPFAKPRP | -0.0729
78 | RRIRQRPPRLPRPRPRPCSAPRP | -0.257
79 | RRIRHRPPRLPRPRPRPRYSPRP | -0.234
80 | RRIRRRPPRLPRPRPRPEHEPRP | 0.0952
81 | RRIRLRPPRLPRPRPRPHHRPRP | -0.263
82 | RRIRYRPPRLPRPRPRPSNAPRP | -1
83 | RRIRQRPPRLPRPRPRPHFPPRP | -0.216
84 | RRIRKRPPRLPRPRPRPSTLPRP | 0.252
85 | RRIRHRPPRLPRPRPRPQSRPRP | -0.0223
86 | RRIRDRPPRLPRPRPRPVLGPRP | 0.162
87 | RRIRARPPRLPRPRPRPCRVPRP | -0.19
88 | RRIRHRPPRLPRPRPRPTQYPRP | 0.124
89 | RRIRERPPRLPRPRPRPYHLPRP | -0.0102
90 | RRIRDRPPRLPRPRPRPIKNPRP | -0.158
91 | RRIRLRPPRLPRPRPRPCSWPRP | -0.0168
92 | RRIRTRPPRLPRPRPRPIGVPRP | -0.0262
93 | RRIRHRPPRLPRPRPRPTMGPRP | 0.144
94 | RRIRTRPPRLPRPRPRPKEFPRP | -0.0177
95 | RRIRFRPPRLPRPRPRPTMDPRP | -0.246
96 | RRIRDRPPRLPRPRPRPPGFPRP | 0.348
97 | RRIRRRPPRLPRPRPRPTGTPRP | 1.07
98 | RRIRCRPPRLPRPRPRPGKFPRP | -0.188
99 | RRIRGRPPRLPRPRPRPYSDPRP | -0.11
100 | RRIRSRPPRLPRPRPRPFVPPRP | -0.27

Row | Sequence | shrunken log2 fold change
101 | RRIRLRPPRLPRPRPRPFPTPRP | -0.158
102 | RRIRMRPPRLPRPRPRPEQNPRP | 2.47
103 | RRIRWRPPRLPRPRPRPIWHPRP | 0.126
104 | RRIRVRPPRLPRPRPRPCCEPRP | -0.0815
105 | RRIRDRPPRLPRPRPRPMIVPRP | 0.00989
106 | RRIRNRPPRLPRPRPRPVHGPRP | -0.0581
107 | RRIRERPPRLPRPRPRPEVNPRP | -0.0365
108 | RRIRLRPPRLPRPRPRPHLPPRP | -0.353
109 | RRIRFRPPRLPRPRPRPGSAPRP | 0.182
110 | RRIRERPPRLPRPRPRPIIEPRP | 0.0238
111 | RRIRSRPPRLPRPRPRPLKVPRP | -0.0229
112 | RRIRPRPPRLPRPRPRPVFDPRP | 0.342
113 | RRIRGRPPRLPRPRPRPKAKPRP | 0.017
114 | RRIRCRPPRLPRPRPRPYTLPRP | -1.07
115 | RRIRKRPPRLPRPRPRPADIPRP | -0.075
116 | RRIRLRPPRLPRPRPRPNTDPRP | -0.371
117 | RRIRYRPPRLPRPRPRPNLKPRP | -0.732
118 | RRIRQRPPRLPRPRPRPSGFPRP | -0.102
119 | RRIRIRPPRLPRPRPRPACTPRP | 0.242
120 | RRIRKRPPRLPRPRPRPRFHPRP | 0.077
121 | RRIRFRPPRLPRPRPRPLLMPRP | -0.564
122 | RRIRERPPRLPRPRPRPCRRPRP | 0.0646
123 | RRIRDRPPRLPRPRPRPFVQPRP | -0.194
124 | RRIRCRPPRLPRPRPRPWPIPRP | -0.369
125 | RRIRPRPPRLPRPRPRPIEHPRP | -0.186
